Results on four molecules are retold here after patent US20260191907A1 (INSTITUT CURIE, published 2026).

Test [1] has as its target T1, Recombinant FGFR1 (G&P Biosciences) (UniProt P11362 22-376, limits assumed).
T1 construct: Immobilised on the SPR chip
T1 sequence (looked up): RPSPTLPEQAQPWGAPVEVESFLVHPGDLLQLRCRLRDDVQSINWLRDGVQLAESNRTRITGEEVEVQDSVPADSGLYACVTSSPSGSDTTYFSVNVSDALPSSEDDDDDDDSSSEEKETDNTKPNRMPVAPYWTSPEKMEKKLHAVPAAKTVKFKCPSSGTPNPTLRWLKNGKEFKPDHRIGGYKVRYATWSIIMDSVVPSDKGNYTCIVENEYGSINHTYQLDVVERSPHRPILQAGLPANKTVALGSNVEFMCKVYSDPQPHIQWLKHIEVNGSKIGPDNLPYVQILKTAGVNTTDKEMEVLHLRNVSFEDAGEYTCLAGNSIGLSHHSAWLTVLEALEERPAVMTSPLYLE
The test can be described thus: SPR, FGFR1 immobilised, nanobody as analyte at five concentrations. The procedure:
(§1) Single cycle kinetics analysis was performed with the BIAcore® T200 instrument (GE Healthcare) on CMD200M sensor chips (XanTec bioanalytics GmbH) activated with a mixture of 300 mM NHS (N-hydroxysuccinimide) and 50 mM EDC (N-ethyl-N′-(dimethylaminopropyl) carbodiimide). Recombinant FGFR1, FGFR2, FGFR3 and FGFR4 (G&P Biosciences) were immobilized on the activated biosensors (800 to 12′000 RU; 1 RU=1 pg/mm²) followed by a blocking step with 1M ethanolamine. One flow channel per chip was used as a reference to provide background corrections. The nanobodies were injected at 5 different concentrations followed by a dissociation phase. Koff-rates were determined from a final dissociation step after the last injection. The measurements with FGFR4 were performed for each nanobody on freshly immobilized protein due to strong binding and incomplete dissociation from the surface. Immobilization flow rate was 5 μl/min and binding studies were performed at 30 μl/min. Binding parameters were determined with the heterogeneous ligand model fit of the BIAevaluation software. The black curves represent the measured data and red curves show the performed fit analysis.
To determine the binding affinity of the nanobodies to FGFR4, we performed surface plasmon resonance (SPR) spectroscopy with recombinant FGFR4. As already mentioned above, FGFR1 and FGFR2 are expressed on Rh4-FR4ko cells and flow cytometry analysis indicated no binding of the nanobodies to the cells. To further confirm FGFR4-specificity, we included also affinity measurements with recombinant FGFR1, FGFR2 and FGFR3. Nanobodies A8, B1, B5, F8, and mCh were injected in five different concentrations on a FGFR coated chip. Except for the negative control mCh, calculated KD values for FGFR4 binding were in the nano- and picomolar range (FIG. 3; Table 2). Affinity parameters could not be fitted with a 1:1 binding model and best fits were obtained with the heterogeneous ligand model of the BIAevaluation software resulting in two KD values for each candidate.
Background: SPR reads the build-up and loss of mass on a sensor chip optically.

The target in test [2] is T2, Recombinant FGFR4 (G&P Biosciences) (human, UniProt P22455 22-369).
T2 construct: Bought protein; the SPR method says only 'Recombinant; also called rFGFR4; extracellular FGFR4
T2 sequence: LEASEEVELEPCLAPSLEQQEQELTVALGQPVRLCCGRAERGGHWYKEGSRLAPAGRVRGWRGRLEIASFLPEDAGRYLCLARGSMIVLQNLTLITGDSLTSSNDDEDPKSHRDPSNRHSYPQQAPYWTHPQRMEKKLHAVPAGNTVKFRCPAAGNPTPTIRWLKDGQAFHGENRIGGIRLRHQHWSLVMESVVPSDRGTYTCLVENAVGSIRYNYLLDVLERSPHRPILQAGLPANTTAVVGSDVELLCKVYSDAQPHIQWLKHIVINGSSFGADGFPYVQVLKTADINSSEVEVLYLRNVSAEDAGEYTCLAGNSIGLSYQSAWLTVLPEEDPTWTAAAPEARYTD
The test can be described thus: SPR (BIAcore T200), single cycle kinetics, FGFR4 amine-immobilised, nanobody as analyte, heterogeneous ligand model, component 1 (koff1). The procedure: (§2) FIG. 3: Affinity determination of nanobodies to recombinant protein via surface plasmon resonance spectroscopy. Single cycle kinetics analysis was performed on immobilized FGFR4 through covalent amine binding on the dextran based sensor chip. The analytes A8, B1, B5, F8 and mCh were injected in 5 different concentrations followed by a dissociation phase. A final dissociation step was added after the last injection step to determine Koff rates for the KD calculations. The black curves represent the measured data and red curves show the fit analysis (heterogeneous ligand model) performed with the BIAevaluation software.
as §1
(§3) To determine the binding affinity of the nanobodies to FGFR4, we performed surface plasmon resonance (SPR) spectroscopy with recombinant FGFR4. As already mentioned above, FGFR1 and FGFR2 are expressed on Rh4-FR4ko cells and flow cytometry analysis indicated no binding of the nanobodies to the cells. […]

For test [3], the target named is T2, Recombinant FGFR4 (G&P Biosciences). The test can be described thus: SPR (BIAcore T200), single cycle kinetics, FGFR4 amine-immobilised, nanobody as analyte, heterogeneous ligand model, component 1 (kon1). As to the method: as §2, §1
(§4) To determine the binding affinity of the nanobodies to FGFR4, we performed surface plasmon resonance (SPR) spectroscopy with recombinant FGFR4. As already mentioned above, FGFR1 and FGFR2 are expressed on Rh4-FR4ko cells and flow cytometry analysis indicated no binding of the nanobodies to the cells. To further confirm FGFR4-specificity, we included also affinity measurements with recombinant FGFR1, FGFR2 and FGFR3. Nanobodies A8, B1, B5, F8, and mCh were injected in five different concentrations on a FGFR coated chip.

For test [4] the target is unchanged. The test can be described thus: SPR (BIAcore T200), single cycle kinetics, FGFR4 amine-immobilised, nanobody as analyte, heterogeneous ligand model, component 1 (KD1). The procedure:
as §2, §1, §4

For test [5] the target is unchanged. The test is described as follows: SPR (BIAcore T200), single cycle kinetics, FGFR4 amine-immobilised, nanobody as analyte, heterogeneous ligand model, component 2 (koff2). The procedure: as §2, §1, §3

B1: B5 nanobody (anti-FGFR4 sdAb, NaLi-H1 library) (VHH)
VHH: EVQLQASGGGFVQPGGSLRLSCAASGRTSWLTTMGWFRQAPGKEREFVSAISSFSSKQGYYADSVKGRFTISRDNSKNTVYLQMNSLRAEDTATYYCAYASYPRHQGNGRWKDFVEYWGQGTQVTVSS
notes: Recombinant nanobody of about 17 kDa; also called B5 sdAb; not shown: C-terminal Myc/6xHis-tag and an additional cysteine
Consider B1, for which the binding result in test [1] was “no binding”. The koff – broadly, a measure of how fast the partners let go of each other – in test [2] was 0.000566 s⁻¹. The kon (usually the second-order rate constant of association) in test [3] worked out at 1.84e+06 M⁻¹ s⁻¹. Also, the Kd – broadly, the concentration at which binding is half-saturated – in test [4] was 308 pM.

B2: A8 nanobody (anti-FGFR4 sdAb, NaLi-H1 library) (VHH)
VHH: EVQLQASGGGFVQPGGSLRLSCAASGRTYSRDTMGWFRQAPGKEREFVSAISSRHSHTTYYADSVKGRFTISRDNSKNTVYLQMNSLRAEDTATYYCAEWDVFDMHYALPPMWYWGQGTQVTVSS
notes: also called A8 sdAb; not shown: C-terminal Myc/6xHis-tag and an additional cysteine
With B2, the binding result in test [1] was “no binding”. Further, the koff in test [5] was determined as 0.00245 s⁻¹. Further, the kon in test [3] was 314000 M⁻¹ s⁻¹. In addition, in test [4], the Kd worked out at 0.00422 pM.

B3: F8 nanobody (anti-FGFR4 sdAb, Gimli library) (VHH)
VHH: EVQLVESGGGLVQPGGSLRLSCAASGTGYALDDMGWVRQAPGKGLEWVSAISDDESMADYYADSVKGRFTISRDNSKNTVYLQMNSLRAEDTAVYYCASYKEYKYQSGHHYFAYRGQGTLVTVSS
notes: Recombinant nanobody of about 17 kDa; also called F8 sdAb; not shown: C-terminal Myc/6xHis-tag and an additional cysteine
Turning to B3, in test [1], the binding result is “no binding”. In addition, the koff in test [5] came out at 0.00557 s⁻¹; in test [2], 1.04e-06 s⁻¹. For the same molecule, in test [3], the kon was found to be 54500 M⁻¹ s⁻¹. In addition, in test [4], the dissociation constant (Kd) stood at 19.1 pM.

B4: B1 nanobody (anti-FGFR4 sdAb, NaLi-H1 library) (VHH)
VHH: EVQLQASGGGFVQPGGSLRLSCAASGYTSRSSAMGWFRQAPGKEREFVSAISDLTGYPYYYADSVKGRFTISRDNSKNTVYLQMNSLRAEDTATYYCAAYQDDKWTYGSQHGKYWGQGTQVTVSS
notes: also called B1 sdAb; not shown: C-terminal Myc/6xHis-tag and an additional cysteine
B4: in test [1], the binding result was “no binding”. Also, the koff worked out at 0.000992 s⁻¹ in test [5] and 1.18e-06 s⁻¹ in test [2]. Moreover, the kon in test [3] was 1.11e+06 M⁻¹ s⁻¹. The equilibrium dissociation constant (Kd) in test [4] was found to be 1.06 pM.
